The stoichiometry N is a count of units in the complex or per binding partner.

The experiment has as its target leader of the capsid (LC) protein from Feline calicivirus (Feline calicivirus, Urbana strain). Description: non-reducing SDS-PAGE and western blot; total protein extracts (RIPA) of FCV-infected CrFK cells, MOI of 5, 1 to 9 hpi; Laemmli buffer without β-ME; detected with anti-LC serum; also cells untreated or treated with 5 µM 16F16.

“leader of the capsid (LC) protein from Feline calicivirus (natural protein)” came in with a stoichiometry N of 2.

The values are drawn from publication PMC12455940.
